From patent US20110171242A1 come the findings set out here.

The target in the test is LTβR (whole, in cells) (human) (UniProt P36941). Put plainly: cell-based or functional assay.

In the case of “recombinant soluble LTα1β2 (from UniProt P01374 35-205; Q06643 49-244) (ligand)”, the IC50 for inhibition of HCMV pp28 expression (western blot) came out at 1 nM; the inhibition of the cytopathic effect of HCMV, against LTα and LIGHT came to 10 fold.
